Experimental data taken from paper PMC7948471, “RSU-1 interaction with prohibitin-2 links cell–extracellular matrix detachment to downregulation of ERK signaling” (The Journal of Biological Chemistry, 2020).
Each block holds one binder with its values, some of them ahead of it.

Target: T1, GST-tagged RSU1 (full length) (human, UniProt Q15404 1-277)
T1 construct: Ras suppressor 1 (RSU1), human; the ORF inserted into pGEX-5x-1; In solution in the MBP-PHB2 pull-down; as bait in the pull-down of venus-PHB2; also called GST-RSU1; source: E. coli, purified (glutathione-Sepharose 4B)
T1 sequence (looked up): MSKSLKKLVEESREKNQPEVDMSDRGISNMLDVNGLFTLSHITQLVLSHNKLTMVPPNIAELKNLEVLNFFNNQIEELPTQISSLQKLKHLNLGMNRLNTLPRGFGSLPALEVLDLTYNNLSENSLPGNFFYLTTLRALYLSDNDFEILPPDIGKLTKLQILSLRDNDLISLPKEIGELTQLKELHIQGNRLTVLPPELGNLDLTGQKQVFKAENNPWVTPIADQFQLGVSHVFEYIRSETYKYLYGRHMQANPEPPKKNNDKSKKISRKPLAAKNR
Assay: pull-down; GST-RSU1 (10 μg/ml) with amylose beads holding MBP-tagged full-length or deletion forms of PHB2 or MBP; 1% Triton X-100, 10 mM Tris, 100 mM NaH2PO4, pH 8.0; 4 °C, 3 h; Western blot with anti-RSU1
Conditions: both partners purified

- binding result: binds
B1: MBP-tagged PHB2 mutant in which amino acids 150 to 206 are deleted (Δ150–206) (natural protein, human, UniProt Q99623 1-299, looked up)
chain: MAQNLKDLAGRLPAGPRGMGTALKLLLGAGAVAYGVRESVFTVEGGHRAIFFNRIGGVQQDTILAEGLHFRIPWFQYPIIYDIRARPRKISSPTGSKDLQMVNISLRVLSRPNAQELPSMYQRLGLDYEERVLPSIVNEVLKSVVAKFNAQRAQFLVEKAKQEQRQKIVQAEGEAEAAKMLGEALSKNPGYIKLRKIRAAQNISKTIATSQNRIYLTADNLVLNLQDESFTRGSDSLIKGKK
notes: source: E. coli, purified (amylose-agarose beads)

- binding result: binds
B2: MBP-tagged PHB2 middle region (amino acids 150–206) (domain or fragment, human, UniProt Q99623 150-206, looked up)
chain: ASQLITQRAQVSLLIRRELTERAKDFSLILDDVAITELSFSREYTAAVEAKQVAQQE
notes: as for B1
